“Also recorded” adds a separate entry of the source.
Test system: ES-2 cells
Assay: Chemotherapy resistance of ES-2 cells on protein-coated plates (Cell-Titre Glo viability, % growth benefit)
Type: cell-based
Source text: (A) Increased desmoplasia is correlated with POSTN expression and primary chemotherapy-resistance. Representative high magnification images of hematoxylin and eosin (H&E) staining of tumor specimens (upper panels) and POSTN ISH images (lower panel) are shown. Desmoplasia scores were defined as follows: 0=no desmoplasia, 1=few scattered desmoplastic foci abutting cancer cells, 2=several desmoplastic foci abutting cancer cells or moderate confluent (wider) desmoplasia, but not present throughout the section, 3=desmoplastic reaction throughout section, associated with most cancer cells. Labels: DS=desmoplastic stroma, NS=normal stroma, TC =tumor cells. Arrows point to examples of tumor cells. A dotted line encircles a region containing tumor cells. Size bars, 100 μm. (B) Summary of desmoplasia scores in 21 Plat-S primary, 18 Plat-R primary, and 21 Plat-R recurrent tumor specimens; (C) POSTN promotes chemotherapy-resistance in chemotherapy-sensitive ES2 ovarian cells in vitro. 96-well plates were coated with recombinant protein FN1 or POSTN or left uncoated before cells were plated into each well. 10 μM carboplatin or 10 nM taxol was then added to each well on the next day. Cell-Titre Glo® reagents were added at 72 hours after compound treatment to measure cell viability. The viability in coated wells was then compared with viability in uncoated wells to calculate % growth benefit. […]

B1: POSTN: recombinant full-length POSTN (Cat #3548-F2, R&D Systems) used to coat culture plates (protein, UniProt Q15063 22-836, looked up)
Periostin: NNHYDKILAHSRIRGRDQGPNVCALQQILGTKKKYFSTCKNWYKKSICGQKTTVLYECCPGYMRMEGMKGCPAVLPIDHVYGTLGIVGATTTQRYSDASKLREEIEGKGSFTYFAPSNEAWDNLDSDIRRGLESNVNVELLNALHSHMINKRMLTKDLKNGMIIPSMYNNLGLFINHYPNGVVTVNCARIIHGNQIATNGVVHVIDRVLTQIGTSIQDFIEAEDDLSSFRAAAITSDILEALGRDGHFTLFAPTNEAFEKLPRGVLERIMGDKVASEALMKYHILNTLQCSESIMGGAVFETLEGNTIEIGCDGDSITVNGIKMVNKKDIVTNNGVIHLIDQVLIPDSAKQVIELAGKQQTTFTDLVAQLGLASALRPDGEYTLLAPVNNAFSDDTLSMDQRLLKLILQNHILKVKVGLNELYNGQILETIGGKQLRVFVYRTAVCIENSCMEKGSKQGRNGAIHIFREIIKPAEKSLHEKLKQDKRFSTFLSLLEAADLKELLTQPGDWTLFVPTNDAFKGMTSEEKEILIRDKNALQNIILYHLTPGVFIGKGFEPGVTNILKTTQGSKIFLKEVNDTLLVNELKSKESDIMTTNGVIHVVDKLLYPADTPVGNDQLLEILNKLIKYIQIKFVRGSTFKEIPVTVYTTKIITKVVEPKIKVIEGSLQPIIKTEGPTLTKVKIEGEPEFRLIKEGETITEVIHGEPIIKKYTKIIDGVPVEITEKETREERIITGPEIKYTRISTGGGETEETLKKLLQEEVTKVTKFIEGGDGHLFEDEEIKRLLQGDTPVRKLQANKKVQGSRRRLREGRSQ
cell growth with coating alone (ES-2 cells on coated plates, in the absence of chemotherapy treatment): small increase in cell growth
resistance to carboplatin or paclitaxel treatment (viability in coated wells vs uncoated wells, % growth benefit) (ES-2 ovarian cancer cells on coated plates, 10 μM carboplatin or 10 nM paclitaxel, viability at 72 hours): became resistant to carboplatin and paclitaxel treatment; also recorded: significantly more resistant to carboplatin or paclitaxel treatment

— patent US20170253933A1, “COMPOSITIONS AND METHODS FOR TREATING AND DIAGNOSING CHEMOTHERAPY-RESISTANT CANCERS” (Genentech, Inc., priority 2014, published 2017)
